Measurements published in IntAct's records for PubMed 20571511.

B1: Telomere length regulation protein ELG1 (Saccharomyces cerevisiae), Q12050 (parent)
chain: MKRHVSLSDILTGNKRKVRRQDALQITIDDENDTESGTFDARTAKHDDSSVIFLNHSVVKPIEAVSTNHKSAKEFLMTKRTKEKCDDDDDDLIVISDKSPKSETNCSKIALSQEHEDDISIISTSRIKSSLLNERASKIKNFLKHETTDTFKRLNSISKLNEIEPPLPLHQSIFPVGDKELSDRSVDIPLPFRTIPPLNHNFLPSDYESLKDKNSASCIPVRYQAPVLLGTNIKRNTTLTWPQLFKPVTLKQVLIEPKLKLRIKNWIETSFHTLEKPTLRNRLLNRINPNKQQGSGDELANFIVPDLEEDENLRPDFYRNGEANSSLSEFVPLMILHGNSIGKKTLIQTIMREIAGDDNSYQIYEVNSNMNRSKKDLLDILLDFTTTHYVKDSSKRKSDYGLVLFNDVDVLFKEHDRGYWAMISKLCEFSRRPLVLTCKDLSLVPSELIALASEQNSLFHTKKISTSTVYAFLTKYLKSLEIEVCDDWLRDVVKQNNADIRKCLMHLQFWCVDTEADLISSKNRLPVLTSTLGSSVKDISQLTDLLSINDVIGQATLNRSMVRQEIDSTTMTPEKVNTFQDQNLDDEMKLKFDYVIDYKLHLNDPNRQPLLPFELNIYQHIQEQLEARYSYVREANHRLDNEYLVNRFKKMTESTLNFLASRIPKYDHLQSARRTRNSKKISDILNQFKGIYNDETLNENAEIDLLSATTQQIKAEINPFVFEIAKSDANVKNENKQIFELHSENVSERRYKDLVYQLSQEGVLKNVWFNADPSIVVRKWEHLHSGFSKNK
B2: Proliferating cell nuclear antigen (Saccharomyces cerevisiae), P15873 (parent)
chain: MLEAKFEEASLFKRIIDGFKDCVQLVNFQCKEDGIIAQAVDDSRVLLVSLEIGVEAFQEYRCDHPVTLGMDLTSLSKILRCGNNTDTLTLIADNTPDSIILLFEDTKKDRIAEYSLKLMDIDADFLKIEELQYDSTLSLPSSEFSKIVRDLSQLSDSINIMITKETIKFVADGDIGSGSVIIKPFVDMEHPETSIKLEMDQPVDLTFGAKYLLDIIKGSSLSDRVGIRLSSEAPALFQFDLKSGFLQFFLAPKFNDEE
partner: B1 chain

Variants of: B1
Settings: with pcna_yeast POL30, P15873

| effect of a mutation on the interaction | Variant |
| --- | --- |
| decreasing interaction | V58A |
| decreasing interaction | S57A |

Variants of: B1
Settings: with pcna_yeast POL30, P15873
Remark: another data set of the same source

| effect of a mutation on the interaction | Variant |
| --- | --- |
| decreasing interaction | V59A |

Variants of: B1
Settings: with pcna_yeast POL30, P15873
Remark: another data set of the same source

| effect of a mutation on the interaction | Variant |
| --- | --- |
| disrupting interaction | I122A |
| disrupting interaction | I121A |
| disrupting interaction | I93K |
| disrupting interaction | I28A |

Variants of: B1
Settings: with smt3_yeast SMT3, Q12306
Sequence of smt3_yeast SMT3, Q12306 (Q12306 whole entry): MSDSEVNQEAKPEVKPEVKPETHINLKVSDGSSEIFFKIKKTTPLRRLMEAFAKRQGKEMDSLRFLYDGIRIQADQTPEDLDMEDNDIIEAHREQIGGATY

| effect of a mutation on the interaction | Variant |
| --- | --- |
| decreasing interaction | I122A |
| decreasing interaction | I121A |
| decreasing interaction | I93K |
| decreasing interaction | I28A |

Variants of: B1
Settings: with smt3_yeast SMT3, Q12306
Remark: another data set of the same source

| effect of a mutation on the interaction | Variant |
| --- | --- |
| disrupting interaction | I122A |
| disrupting interaction | I121A |
| disrupting interaction | I93K |
| disrupting interaction | I28A |

Variants of: B2
Settings: with elg1_yeast ELG1, Q12050

| effect of a mutation on the interaction | Variant |
| --- | --- |
| decreasing interaction | MLEAKFEEASLFKRIIDGFKDCVQLVNFQCKEDGIIAQAVDDSRVLLVSLEIGVEAFQEYRCDHPVTLGMDLTSLSKILRCGNNTDTLTLIADNTPDSIILLFEDTKKDRIAEYSLKLMDIDADFLKIEELQYDSTLSLPSSEFSKIVRDLSQLSDSINIMITRETIKFVADGDIGSGSVIIKPFVDMEHPETSIKLEMDQPVDLTFGAKYLLDIIKGSSLSDRVGIRLSSEAPALFQFDLKSGFLQFFLAPKFNDEE [K164R] |
